According to patent publication EP1870419A2, “Modulators of beta-amyloid peptide aggregation comprising D-amino acids” (Praecis Pharmaceuticals Incorporated, priority 1999, dated 2000):

Biological target: Aβ1-40 peptide (natural β-amyloid peptide, β-AP1-40)
Experiment: cell-based or functional assay

Chain of Aβ1-40 peptide (natural β-amyloid peptide, β-AP1-40) (peptide, as listed by the source limits assumed, form in doubt): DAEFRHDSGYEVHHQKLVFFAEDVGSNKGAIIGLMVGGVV

For “PPI-1318: TFA·H-(lf-D-Cha-vl)-NH2 (peptide)”, which Nucleation assay data (Δlag), 0.3 µM compound (fold of control lag time) is on record?
Its Nucleation assay data (Δlag), 0.3 µM compound (fold of control lag time) is 1.

And the Nucleation assay data (Δlag), 1 µM compound (fold of control lag time)?
The Nucleation assay data (Δlag), 1 µM compound (fold of control lag time) was 2.

And the Nucleation assay data (Δlag), 3 µM compound (fold of control lag time)?
Its Nucleation assay data (Δlag), 3 µM compound (fold of control lag time) is > 5.

How did the Nucleation assay data (Δlag), 0.3 µM compound (fold of control lag time) turn out when “PPI 1320: TFA·H-(lf-[F5]f-vl)-NH2 (peptide)” was run?
Its Nucleation assay data (Δlag), 0.3 µM compound (fold of control lag time) is 1.

What about the Nucleation assay data (Δlag), 1 µM compound (fold of control lag time) of the same substance?
Its Nucleation assay data (Δlag), 1 µM compound (fold of control lag time) is 3.

And the Nucleation assay data (Δlag), 3 µM compound (fold of control lag time)?
The Nucleation assay data (Δlag), 3 µM compound (fold of control lag time) was > 5.

What does the source list for “PPI 1125: 2 TFA·H-lvf-NH-NH-fvl-H (peptide)”?
Nucleation assay data (Δlag), 0.6 µM compound (note *) (fold of control lag time): 2; Nucleation assay data (Δlag), 1.25 µM compound (note *) (fold of control lag time): > 2.5; Nucleation assay data (Δlag), 2.5 µM compound (note *) (fold of control lag time): > 2.5

For “PPI 1007: TFA·N,N-dimethyl-(lvffl)-NH2 (peptide)”, which Nucleation assay Δlag, 0.3 µM compound (note *) (fold of control lag time) is on record?
The Nucleation assay Δlag, 0.3 µM compound (note *) (fold of control lag time) was 3.

What about the Nucleation assay Δlag, 0.6 µM compound (note #) (fold of control lag time) of the same substance?
The Nucleation assay Δlag, 0.6 µM compound (note #) (fold of control lag time) was 1.5.

What about the Nucleation assay Δlag, 1 µM compound (note *) (fold of control lag time) of the same substance?
Its Nucleation assay Δlag, 1 µM compound (note *) (fold of control lag time) is 4.

And the Nucleation assay Δlag, 1.25 µM compound (note #) (fold of control lag time)?
The Nucleation assay Δlag, 1.25 µM compound (note #) (fold of control lag time) was 1.5.

And the Nucleation assay Δlag, 2.5 µM compound (note #) (fold of control lag time)?
Its Nucleation assay Δlag, 2.5 µM compound (note #) (fold of control lag time) is 1.5.

What about the Nucleation assay Δlag, 3 µM compound (note *) (fold of control lag time) of the same substance?
The Nucleation assay Δlag, 3 µM compound (note *) (fold of control lag time) was 4.

What does the source list for “PPI-1019: TFA•N-methyl-(lvffl)-NH2 (peptide)”?
Nucleation assay data (Δlag), 0.6 µM compound (note *) (fold of control lag time): 2; Nucleation assay data (Δlag), 1.25 µM compound (note *) (fold of control lag time): > 2.5; Nucleation assay data (Δlag), 2.5 µM compound (note *) (fold of control lag time): > 2.5

Which results are given for PPI 1013: TFA·H-(Glvffl)-NH2 (peptide)?
Nucleation assay Δlag, 0.6 µM compound (note #) (fold of control lag time): 2; Nucleation assay Δlag, 1.25 µM compound (note #) (fold of control lag time): > 3; Nucleation assay Δlag, 2.5 µM compound (note #) (fold of control lag time): 2

“PPI 992: TFA·H-(lvffa)-isopropylamide (peptide)” was tested. Which Nucleation assay Δlag, 1.25 µM compound (fold of control lag time) did it give?
Its Nucleation assay Δlag, 1.25 µM compound (fold of control lag time) is 1.

And the Nucleation assay Δlag, 2.5 µM compound (fold of control lag time)?
The Nucleation assay Δlag, 2.5 µM compound (fold of control lag time) was 1.

What about the Nucleation assay Δlag, 5 µM compound (fold of control lag time) of the same substance?
The Nucleation assay Δlag, 5 µM compound (fold of control lag time) was 3.

“PPI 969: TFA·N-ethyl-(Gaffvl)-NH2 (peptide)” was tested. Which Nucleation assay Δlag, 1.25 µM compound (fold of control lag time) did it give?
The Nucleation assay Δlag, 1.25 µM compound (fold of control lag time) was 3.

And the Nucleation assay Δlag, 2.5 µM compound (fold of control lag time)?
The Nucleation assay Δlag, 2.5 µM compound (fold of control lag time) was > 5.

And the Nucleation assay Δlag, 5 µM compound (fold of control lag time)?
Its Nucleation assay Δlag, 5 µM compound (fold of control lag time) is > 5.
